± gives the uncertainty stated by the source.
Experiment: self-splicing fitness, log relative to wild type (ln ratio); higher = more splicing; Tetrahymena group I intron in knt gene, E. coli kanamycin selection, DiMSum; sequences stand for … in CUCUCU…GGAGGGAAAAGUUAUCAGGCAUGCACCUGGUAGCUAGUCUUUAAACCAAUAGAUUGCAUCGGUUUAAAAGGCAAGACCGUCAAAUUGCGGGAAAGGGGUCAACAGCCGUUCAGUACCAAGUCUCAGGGGAAACUUUGAGAUGGCCUUGCAAAGGGUAUGGUAAUAAGCUGACGGACAUGGUCCUAACCACGCAGCCAAGUCCUAAGUCAACAGAUCUUCUGUUGAUAUGGAUGCAGUUCACAGACUAAAUGUCGGUCGGGGAAGAUGUAUUCUUCUCAUAAGAUAUAGUCGGACCUCUCCUUAAUGGGAGCUAGCGGAUGAAGUGAUGCAACACUGGAGCCGCUGGGAACUAAUUUGUAUGCGAAAGUAUAUUGAUUAGUUUUGGAGUACUCGUGGUCG
Summary of the method: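 Six replicate transformations of E. coli BL21(DE3) with a pET-22b(+) library were grown overnight at 37°C or 30°C. The library randomised all eight P1ex-region intron nucleotides, the intron lying in the knt kanamycin-resistance gene, and plates were LB agar with or without 25 μg/mL kanamycin plus 100 μg/mL carbenicillin, 50 μM IPTG and 0.2% rhamnose. Pooled colonies were amplicon-sequenced on an Illumina HiSeq 2500, and fitness is the DiMSum error-weighted combination of wild-type-normalised replicate fold changes, kanamycin versus none.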

| Sequence | self-splicing fitness (ln) (30 °C) | self-splicing fitness (ln) (37 °C) |
| --- | --- | --- |
| UAGGAGCAAUAUUACGCACG | -2.12 ± 0.32 | -0.819 ± 0.25 |
| UAGGAGCAAUAUUACGCAUG | -1.64 ± 0.2 | 0.135 ± 0.15 |
| UAGGAGCAAUAUUACGCCGG | -2.07 ± 0.22 | -1.57 ± 0.3 |
| UAGGAGCAAUAUUACGCUAG | -3.03 ± 0.19 | -0.83 ± 0.19 |
| UAGGAGCAAUAUUACGCUGC | -3.05 ± 0.41 | -1.03 ± 0.42 |
| UAGGAGCAAUAUUACGGGAC | -3.63 ± 0.4 | -2.85 ± 0.47 |
| UAGGAGCAAUAUUACGGUCC | -3.93 ± 0.37 | -0.78 ± 0.26 |
| UAGGAGCAAUAUUACGGUGG | -2.79 ± 0.21 | -0.497 ± 0.17 |
| UAGGAGCAAUAUUACGUACG | -1.28 ± 0.17 | -0.737 ± 0.3 |
| UAGGAGCAAUAUUACGUCUC | -2.51 ± 0.49 | – |
| UAGGAGCAAUAUUACGUGUA | -2.02 ± 0.13 | -1.63 ± 0.12 |
| UAGGAGCAAUAUUACGUGUC | -3.27 ± 0.34 | -1.82 ± 0.27 |
| UAGGAGCAAUAUUACGUUCC | -2.97 ± 0.4 | – |
| UAGUAGCAAUAUUACGAAAG | – | -1.97 ± 0.26 |
| UAGUAGCAAUAUUACGACCA | -0.4 ± 0.15 | 0.221 ± 0.17 |
| UAGUAGCAAUAUUACGAGCC | -2.98 ± 0.47 | -2.31 ± 0.42 |
| UAGUAGCAAUAUUACGAUCC | -3.16 ± 0.45 | -2.22 ± 0.4 |
| UAGUAGCAAUAUUACGAUGU | – | -2.22 ± 0.32 |
| UAGUAGCAAUAUUACGCAAU | – | -2.45 ± 0.35 |
| UAGUAGCAAUAUUACGCACG | -0.964 ± 0.15 | -0.244 ± 0.21 |
| UAGUAGCAAUAUUACGCCUU | -2.11 ± 0.12 | -0.556 ± 0.11 |
| UAGUAGCAAUAUUACGCGUU | -2.86 ± 0.17 | -2.44 ± 0.23 |
| UAGUAGCAAUAUUACGCUGG | -1.13 ± 0.099 | -1.34 ± 0.15 |
| UAGUAGCAAUAUUACGGAAU | – | -2.65 ± 0.44 |
| UAGUAGCAAUAUUACGGACG | -2.09 ± 0.12 | -0.623 ± 0.13 |
| UAGUAGCAAUAUUACGGAUG | -0.956 ± 0.084 | -0.222 ± 0.087 |

| Sequence | self-splicing fitness (ln) (30 °C) | self-splicing fitness (ln) (37 °C) |
| --- | --- | --- |
| UAGUAGCAAUAUUACGGGCC | -2.91 ± 0.23 | -1.62 ± 0.22 |
| UAGUAGCAAUAUUACGUAGG | -3.19 ± 0.47 | – |
| UAGUAGCAAUAUUACGUCUG | 0.113 ± 0.19 | -0.884 ± 0.2 |
| UAGUAGCAAUAUUACGUGCG | -1.52 ± 0.12 | -0.311 ± 0.15 |
| UAGUAGCAAUAUUACGUGGU | -3.62 ± 0.18 | -3.33 ± 0.19 |
| UAGUAGCAAUAUUACGUUGA | -2.34 ± 0.13 | -1.54 ± 0.12 |
| UAGUAGCAAUAUUACGUUUG | -2.4 ± 0.18 | -0.923 ± 0.14 |
| UAUAAGCAAUAUUACGAGCU | -3.44 ± 0.34 | -1.47 ± 0.21 |
| UAUAAGCAAUAUUACGAGUA | -0.776 ± 0.085 | -0.245 ± 0.081 |
| UAUAAGCAAUAUUACGAUAC | – | -2.39 ± 0.33 |
| UAUAAGCAAUAUUACGAUCA | -0.251 ± 0.1 | 0.847 ± 0.11 |
| UAUAAGCAAUAUUACGCCAC | -3.21 ± 0.43 | -1.21 ± 0.38 |
| UAUAAGCAAUAUUACGCGUU | -2.67 ± 0.14 | -0.931 ± 0.12 |
| UAUAAGCAAUAUUACGCUCU | -0.357 ± 0.11 | 0.0533 ± 0.16 |
| UAUAAGCAAUAUUACGCUGC | -3.35 ± 0.32 | – |
| UAUAAGCAAUAUUACGGCGU | -0.993 ± 0.093 | -0.232 ± 0.12 |
| UAUAAGCAAUAUUACGGCUA | -0.234 ± 0.092 | -0.126 ± 0.13 |
| UAUAAGCAAUAUUACGGCUU | -1.22 ± 0.12 | -0.669 ± 0.16 |
| UAUAAGCAAUAUUACGGGAC | -4.01 ± 0.37 | -2.76 ± 0.32 |
| UAUAAGCAAUAUUACGGUCA | -0.385 ± 0.12 | -0.125 ± 0.13 |
| UAUAAGCAAUAUUACGUGAG | -1.56 ± 0.1 | -1.12 ± 0.14 |
| UAUAAGCAAUAUUACGUGUG | -0.923 ± 0.073 | -0.446 ± 0.088 |
| UAUCAGCAAUAUUACGAAAC | – | -2.08 ± 0.32 |
| UAUCAGCAAUAUUACGAAGG | -1.58 ± 0.1 | -1.34 ± 0.13 |
| UAUCAGCAAUAUUACGACAG | -0.385 ± 0.078 | 0.0531 ± 0.1 |
| UAUCAGCAAUAUUACGACUC | -0.81 ± 0.11 | -0.283 ± 0.12 |

| Sequence | self-splicing fitness (ln) (30 °C) | self-splicing fitness (ln) (37 °C) |
| --- | --- | --- |
| UAUCAGCAAUAUUACGACUG | 0.153 ± 0.078 | 0.512 ± 0.13 |
| UAUCAGCAAUAUUACGAGAA | -1.22 ± 0.16 | -0.559 ± 0.13 |
| UAUCAGCAAUAUUACGAGCG | -0.616 ± 0.059 | 0.345 ± 0.088 |
| UAUCAGCAAUAUUACGAUGU | -0.816 ± 0.072 | -0.0178 ± 0.11 |
| UAUCAGCAAUAUUACGAUUG | -0.748 ± 0.087 | 0.588 ± 0.1 |
| UAUCAGCAAUAUUACGCAUG | -1.1 ± 0.082 | 0.181 ± 0.099 |
| UAUCAGCAAUAUUACGCCCG | -0.133 ± 0.098 | -0.202 ± 0.13 |
| UAUCAGCAAUAUUACGCCUU | -0.446 ± 0.24 | -0.723 ± 0.23 |
| UAUCAGCAAUAUUACGCUAU | -2.29 ± 0.11 | -1.74 ± 0.1 |
| UAUCAGCAAUAUUACGCUUA | -0.532 ± 0.13 | 0.504 ± 0.13 |
| UAUCAGCAAUAUUACGCUUC | -2.82 ± 0.23 | -2.09 ± 0.27 |
| UAUCAGCAAUAUUACGGAGA | -0.973 ± 0.085 | -0.0429 ± 0.1 |
| UAUCAGCAAUAUUACGGGUA | -1.2 ± 0.092 | -0.623 ± 0.1 |
| UAUCAGCAAUAUUACGGGUU | -1.83 ± 0.1 | -0.944 ± 0.11 |
| UAUCAGCAAUAUUACGGUGU | -1.35 ± 0.072 | -1.19 ± 0.098 |
| UAUCAGCAAUAUUACGUUGG | -2.48 ± 0.089 | -0.612 ± 0.1 |
| UAUGAGCAAUAUUACGAAAC | -2.34 ± 0.21 | – |
| UAUGAGCAAUAUUACGACUA | -0.118 ± 0.11 | 0.0355 ± 0.12 |
| UAUGAGCAAUAUUACGACUU | -2.66 ± 0.24 | – |
| UAUGAGCAAUAUUACGAGUC | – | -0.461 ± 0.46 |
| UAUGAGCAAUAUUACGCCUA | -1.59 ± 0.18 | -0.615 ± 0.21 |
| UAUGAGCAAUAUUACGCGUC | -2.05 ± 0.16 | -2.81 ± 0.37 |
| UAUGAGCAAUAUUACGCUCC | -1.47 ± 0.31 | – |
| UAUGAGCAAUAUUACGCUUU | -4.14 ± 0.33 | -2.65 ± 0.36 |
| UAUGAGCAAUAUUACGGAGC | -1.38 ± 0.36 | – |
| UAUGAGCAAUAUUACGGAGU | -4.87 ± 0.36 | -3.53 ± 0.37 |

| Sequence | self-splicing fitness (ln) (30 °C) | self-splicing fitness (ln) (37 °C) |
| --- | --- | --- |
| UAUGAGCAAUAUUACGGCCG | -1.33 ± 0.36 | -1.01 ± 0.35 |
| UAUGAGCAAUAUUACGGGCC | – | -3.14 ± 0.43 |
| UAUGAGCAAUAUUACGGGGG | -3.16 ± 0.26 | -2.31 ± 0.29 |
| UAUGAGCAAUAUUACGGGUU | -4.04 ± 0.3 | -2.41 ± 0.27 |
| UAUGAGCAAUAUUACGGUAA | -3.33 ± 0.35 | -2.78 ± 0.35 |
| UAUGAGCAAUAUUACGGUUG | -4.24 ± 0.43 | -2.38 ± 0.45 |
| UAUGAGCAAUAUUACGGUUU | -3.7 ± 0.2 | -2.43 ± 0.21 |
| UAUGAGCAAUAUUACGUCCC | -2.74 ± 0.49 | – |
| UAUGAGCAAUAUUACGUGGC | -3.07 ± 0.2 | -2.52 ± 0.46 |
| UAUUAGCAAUAUUACGAAAA | -1.68 ± 0.26 | -1.2 ± 0.26 |
| UAUUAGCAAUAUUACGAAAU | -2.46 ± 0.35 | -1.53 ± 0.43 |
| UAUUAGCAAUAUUACGACCA | -0.42 ± 0.18 | -0.894 ± 0.19 |
| UAUUAGCAAUAUUACGAGGC | – | -0.205 ± 0.23 |
| UAUUAGCAAUAUUACGAGGU | -2.64 ± 0.24 | -2.27 ± 0.35 |
| UAUUAGCAAUAUUACGAUAU | -3.81 ± 0.26 | -2.11 ± 0.2 |
| UAUUAGCAAUAUUACGCCAC | – | -0.751 ± 0.48 |
| UAUUAGCAAUAUUACGCGAU | – | -2.15 ± 0.38 |
| UAUUAGCAAUAUUACGCUCA | 0.0548 ± 0.15 | 0.336 ± 0.17 |
| UAUUAGCAAUAUUACGGGGG | -4.15 ± 0.46 | -2.75 ± 0.34 |
| UAUUAGCAAUAUUACGGUCU | -2.66 ± 0.23 | -1.57 ± 0.32 |
| UAUUAGCAAUAUUACGGUGC | -3.77 ± 0.3 | -1.84 ± 0.23 |
| UAUUAGCAAUAUUACGGUGU | -3.01 ± 0.25 | -2.7 ± 0.3 |
| UAUUAGCAAUAUUACGUCAA | -1.86 ± 0.21 | -1.34 ± 0.24 |
